Assay results taken from patent publication US20210228853A1, “DRUG DELIVERY METHODS TARGETING THE LYMPHATIC SYSTEM” (Sorrento Therapeutics, Inc., priority 2018, published 2021).

Assays:
[1] = Etanercept pharmacokinetics in porcine model by route of administration; format: in vivo, Yorkshire pig
[2] = tested on: Collagen Induced Arthritic (CIA) Model for Rheumatoid Arthritis (RA); assay: Lymphatic pumping rate by NIRF imaging in CIA rats; format: in vivo, rat; conditions: for lymphatic pumping in the hind limbs vs untreated animals: CIA rat, days 13 and 18 post CIA induction
Description: Specifically, type II porcine collagen (Chondrex, Inc. catalog #20031), solubilized in 0.05 N of acetic acid in sterile water at a concentration of 2 mg/mL was emulsified with an equal volume of incomplete Freud's adjuvant (Chondrex, Inc. catalog #7002) using homogenization at 35,000 rpm (Omni International homogenizer TH, homogenizer probe #32750); 100 μL emulsion was injected subcutaneously at the base of the tails on both sides for initial administration (day 0, 200 μL of emulsion total), and then again, 7 days later, on the right side only, for booster administration (day 7, 100 μL of emulsion total). Hind limb swelling, usually evident by day 14, was assessed by caliper measurements of the rear ankle cross (side-to-side) and oblique (front-to-back) dimensions. The two measurements for each hind limb were multiplied together for assessment of swelling, and the percent change from baseline was computed. These measurements and lymphatic imaging were performed on days 0, 7, 11, 13, and 18, in the early stages of CIA before the onset of joint destruction. Four groups of animals were studied: (1) untreated (n=20), (2) treated with etanercept given by SC administration (n=20, 1 mg in 100 μL), (3) treated with etanercept given by ID administration (n=20, two administrations of 0.5 mg in 50 μL), and (4) treated with etanercept given via Sofusa™ (n=18, one administration of 1 mg in 100 μL delivered). Rats were anesthetized with isoflurane and shaved before imaging; 10 μL of 625 μM ICG was then injected ID with a 31-gauge needle/syringe (BD #328438, Fisher Scientific) at the base of the tail and on the dorsal side of the paw on both the right and left sides of the rats to perform NIRF imaging of the lymphatics. […] The integration time for fluorescence images was 200 ms; 300-900 images were collected per lateral side per rat for lymph propulsive frequency measurements. […]

[3] = tested on: Collagen Induced Arthritic (CIA) Model for Rheumatoid Arthritis (RA); assay: Collagen induced arthritic (CIA) model for rheumatoid arthritis, hind limb/joint swelling; format: in vivo, rat
Description: Specifically, type II porcine collagen (Chondrex, Inc. catalog #20031), solubilized in 0.05 N of acetic acid in sterile water at a concentration of 2 mg/mL was emulsified with an equal volume of incomplete Freud's adjuvant (Chondrex, Inc. catalog #7002) using homogenization at 35,000 rpm (Omni International homogenizer TH, homogenizer probe #32750); 100 μL emulsion was injected subcutaneously at the base of the tails on both sides for initial administration (day 0, 200 μL of emulsion total), and then again, 7 days later, on the right side only, for booster administration (day 7, 100 μL of emulsion total). Hind limb swelling, usually evident by day 14, was assessed by caliper measurements of the rear ankle cross (side-to-side) and oblique (front-to-back) dimensions. The two measurements for each hind limb were multiplied together for assessment of swelling, and the percent change from baseline was computed. These measurements and lymphatic imaging were performed on days 0, 7, 11, 13, and 18, in the early stages of CIA before the onset of joint destruction. Four groups of animals were studied: (1) untreated (n=20), (2) treated with etanercept given by SC administration (n=20, 1 mg in 100 μL), (3) treated with etanercept given by ID administration (n=20, two administrations of 0.5 mg in 50 μL), and (4) treated with etanercept given via Sofusa™ (n=18, one administration of 1 mg in 100 μL delivered).

[4] = Etanercept pharmacokinetics in rat serum by route of administration (ELISA); format: in vivo, Sprague Dawley rats
Description: Methods and procedures for some of these experiments have been adapted from Aldrich, et al., Arthritis Res. Ther., (2017), 19:116 (DOI 10.1186/s13075-017-1323-z; Open Access) which is incorporated by reference herein in its entirety for all purposes.
In order to characterize differences in etanercept delivery by the different routes of administration, normal rats were used to determine the PK profiles following a single dose of 1 mg etanercept in 100 μL delivered via Sofusa™ (n=6), conventional IV (in the tail vein, n=6), SC (dorsolateral injection at the same site as the Sofusa™ application, n=4), or ID injections (symmetrical dorsolateral injections 2×50 uL for a total dose of 1 mg etanercept, n=6). Other than the Sofusa™ delivery, all administration was conducted using a 31-gauge needle. At 2, 4, 8, 12, 24, and 36 h after administration, animals were anesthetized under isoflurane, and 200 μL of blood was drawn from the jugular vein. The etanercept concentration in serum was quantified using the Etanercept ELISA Kit (ABIN: 1540251) (Matriks Biotechnology Co., LTD., Ankara, Turkey). Optical density was measured at 450 nm using Thermo Scientific Multiskan EX (Thermo Fisher Scientific, Waltham, Mass., USA).

[5] = Biodistribution of radiolabeled etanercept to axillary and inguinal lymph nodes; format: in vivo; conditions: rat; Sofusa vs intravenous or subcutaneous; 12 and 36 hours; 1 mg
Description: In order to determine the amount etanercept delivered to the lymph nodes, a radiolabeled etanercept solution was administrated using the Sofusa™ drug delivery platform (1 mg etanercept in 100 μL), IV (1 mg etanercept in the tail vein in 100 μL), SC (1 mg etanercept in the dorsolateral side at the same site as the Sofusa™ application, 100 μL), and ID (1 mg total etanercept in two 50 μL injections). Animals were harvested at 12 and 36 hrs after administration, and the left/right axillary and inguinal lymph nodes were collected, weighed, and counted for radioactivity using a 2480 Wizard2 automatic gamma counter (PerkinElmer, Waltham, Mass., USA). The time-corrected radioactivity was then used to compute the μg/mL of tissue etanercept concentration from the specific radioactivity of the dosing solution with animals that were euthanized at 12 hrs (n=4, Sofusa™; n=6, IV; n=6, ID; and n=6, SC) and at 36 hrs (n=6, Sofusa™; n=6, IV; n=6, ID; and n=6, SC).
In order to validate the amount of etanercept delivered, the radioactivity was measured in the Sofusa™ device and tubing before and after the 1 hr infusion. Measurement was conducted using the dose calibrator. The amount of etanercept delivered as the difference in the time-corrected radioactivity before and after administration was determined.

[6] = Sofusa drug delivery platform vs subcutaneous
[7] = Table 1, IV, 1 mg etanercept single dose
[8] = Table 1, SC, 1 mg etanercept single dose
[9] = Table 2 summary, Sofusa drug delivery platform

In the case of etanercept, the “AUC48 and bioavailability, Sofusa vs intravenous” value [1] is reported as “comparable to that for intravenous administration”, the “AUC48 and bioavailability, Sofusa vs subcutaneous” value [1] is reported as “significantly higher than that for subcutaneous delivery” and the serum concentration ([1]; Sofusa at a dose much lower than subcutaneous administration) is reported as “maintained a serum concentration at a therapeutically effective concentration”. For the same substance, the AUC0-48 ([1]; Table 4, IV) was 143 hrs-μg/mL, the BA ([1]; Table 4, IV) was 100% and the Cmax ([1]; Table 4, IV) was 6000 ng/mL. The Tmax ([1]; Table 4, IV) was 2 h, the AUC0-48 ([1]; Table 4, SC) was 89 hrs-μg/mL and the BA ([1]; Table 4, SC) was 62%. The Cmax ([1]; Table 4, SC) was 2000 ng/mL, the Tmax ([1]; Table 4, SC) was 24 h and the AUC0-48 ([1]; Table 4, Sofusa) was 132 hrs-μg/mL. The BA ([1]; Table 4, Sofusa) was 93%, the Cmax ([1]; Table 4, Sofusa) was 4400 ng/mL and the Tmax ([1]; Table 4, Sofusa) was 24 h. For the same substance, the lymphatic pumping rate ([2]; CIA RA rat, Sofusa compared to untreated, ID and SC groups) was “significantly increased”, the “lymphatic pumping in the hind limbs vs untreated animals” value ([2]; SC administration) was “statistically significant greater lymphatic pumping” and the “lymphatic pumping in the hind limbs vs untreated animals” value ([2]; SOFUSA administration) was “statistically significant greater lymphatic pumping”. The “joint swelling over time” value ([3]; CIA RA rat model, Sofusa administration, 1 mg) was “decreased joint swelling over time”, the “increase in swelling with progression of disease (paired group comparisons, ANOVA)” value (“increase in swelling with progression” below) ([3]; CIA rat, ID administration) was “swelling was significantly increased” and the “increase in swelling with progression” value ([3]; CIA rat, SC administration) was “swelling was significantly increased”. For the same substance, the “increase in swelling with progression” value ([3]; CIA rat, SOFUSA administration) was “no statistically significant increase in swelling”, the “swelling of the hind limbs vs untreated animals” value ([3]; CIA rat, all treated groups (SC, ID, Sofusa), days 13 and 18) was “significant reduction in swelling” and the “hind limb swelling, SOFUSA compared to SC-treated animals” value ([3]; CIA rat, days 13 and 18) was “significantly reduced hind limb swelling”. The “AUC48, Sofusa compared to SC” value [4, 6] was “almost double”, the “Tmax, Sofusa compared to SC” value [4, 6] was “significantly shorter” and the AUC0-48 [4, 7] was 2,800 hrs-μg/mL. It also gave a BA [4, 7] of 100%, a Cmax [4, 7] of 120000 ng/mL and a Tmax [4, 7] of 8 h. The AUC0-48 [4, 8] was 302 hrs-μg/mL, the BA [4, 8] was 10% and the Cmax [4, 8] was 15000 ng/mL. The Tmax [4, 8] was 36 h, the AUC0-48 ([4]; Table 1, Sofusa Study 1) was 545 hrs-μg/mL and the BA ([4]; Table 1, Sofusa Study 1) was 20%. It also gave a Cmax ([4]; Table 1, Sofusa Study 1) of 25000 ng/mL, a Tmax ([4]; Table 1, Sofusa Study 1) of 4 h and an AUC0-48 ([4]; Table 1, Sofusa Study 2) of 502 hrs-μg/mL. The BA ([4]; Table 1, Sofusa Study 2) was 18%, the Cmax ([4]; Table 1, Sofusa Study 2) was 22000 ng/mL and the Tmax ([4]; Table 1, Sofusa Study 2) was 2 h. For the same substance, the AUC0-48 ([4]; Table 1, Sofusa Study 3) was 538 hrs-μg/mL, the BA ([4]; Table 1, Sofusa Study 3) was 19% and the Cmax ([4]; Table 1, Sofusa Study 3) was 20000 ng/mL. It also gave a Tmax ([4]; Table 1, Sofusa Study 3) of 2 h, an AUC0-48 ([4]; Table 2 summary, SC) of 492 hrs-μg/mL and a BA ([4]; Table 2 summary, SC) of 17%. The Cmax ([4]; Table 2 summary, SC) was 15000 ng/mL, the Tmax ([4]; Table 2 summary, SC) was 36 h and the AUC0-48 [4, 9] was 800 hrs-μg/mL. For the same substance, the BA [4, 9] was 29%, the Cmax [4, 9] was 19000 ng/mL and the Tmax [4, 9] was 10 h. The AUC0-36 ([4]; Table 3, Intradermal) was 696 µg·h/mL, the BA ([4]; Table 3, Intradermal) was 25% and the Cmax ([4]; Table 3, Intradermal) was 21000 ng/mL. For the same substance, the Tmax ([4]; Table 3, Intradermal) was 12 h, the AUC0-36 ([4]; Table 3, Intravenous) was 2,815 μg-hour/ml and the BA ([4]; Table 3, Intravenous) was 100%. For the same substance, the Cmax ([4]; Table 3, Intravenous) was 120000 ng/mL, the Tmax ([4]; Table 3, Intravenous) was 2 h and the AUC0-36 ([4]; Table 3, Sofusa) was 1010 µg·h/mL. It also gave a BA ([4]; Table 3, Sofusa) of 36%, a Cmax ([4]; Table 3, Sofusa) of 23000 ng/mL and a Tmax ([4]; Table 3, Sofusa) of 12 h. For the same substance, the AUC0-36 ([4]; Table 3, Subcutaneous) was 302 µg·h/mL, the BA ([4]; Table 3, Subcutaneous) was 11% and the Cmax ([4]; Table 3, Subcutaneous) was 15000 ng/mL. For the same substance, the Tmax ([4]; Table 3, Subcutaneous) was 36 h and the “active agent in the axillary and inguinal lymph nodes” value [5] was “significantly more of the active agent”.
